Experimental data from PMC9335043, “The novel ZmTCP7 transcription factor targets AGPase-encoding gene ZmBt2 to regulate storage starch accumulation in maize”.

Columns and labels:
GST-ZmTCP7 [1] = molecular target: T1, GST-ZmTCP7 (Zea mays, UniProt B4FHV6 1-275); test: EMSA; LightShift chemiluminescent EMSA kit buffer (composition and pH not stated), 25 C, 30 min, 8% PAGE; conditions: protein: recombinant; tags: N-terminal GST (pGEX-6-1); chain copies: 2; label: 3' biotin
T1 sequence: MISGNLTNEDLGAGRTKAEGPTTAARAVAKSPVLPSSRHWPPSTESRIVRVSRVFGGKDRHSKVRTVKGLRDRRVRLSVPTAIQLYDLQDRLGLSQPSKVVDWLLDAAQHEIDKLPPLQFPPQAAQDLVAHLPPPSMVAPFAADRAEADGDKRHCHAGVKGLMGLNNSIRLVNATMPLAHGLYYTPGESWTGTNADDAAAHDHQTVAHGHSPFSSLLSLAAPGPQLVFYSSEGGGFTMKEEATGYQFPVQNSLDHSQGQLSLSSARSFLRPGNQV

GST-ZmTCP7 [2] = molecular target: T1, GST-ZmTCP7; test: competition; unlabeled competitor vs PWT: considerably reduced at 50x, almost completely removed at 100x; LightShift chemiluminescent EMSA kit buffer (composition and pH not stated), 25 C, 30 min, 8% PAGE; conditions: protein: recombinant; tags: N-terminal GST (pGEX-6-1); chain copies: 2

B1: PWT (ZmBt2 promoter 30 bp probe) (dsDNA)
DNA 1: CACACTTTAGAACCCCACGCCTTTACCTAA
DNA 2: TTAGGTAAAGGCGTGGGGTTCTAAAGTGTG
B1: binds (GST-ZmTCP7 [1]).

B2: PMu (mutated ZmBt2 promoter 30 bp probe) (dsDNA)
DNA 1: CACACTTTAGAAAAAACAGCCTTTACCTAA
DNA 2: TTAGGTAAAGGCTGTTTTTTCTAAAGTGTG
B2: no binding (GST-ZmTCP7 [1]).

B3: unlabeled WT 30 bp competitor (dsDNA)
DNA 1: CACACTTTAGAACCCCACGCCTTTACCTAA
DNA 2: TTAGGTAAAGGCGTGGGGTTCTAAAGTGTG
B3: binds (GST-ZmTCP7 [2]).
